Source: the supplement of paper PMC9732359
± gives the uncertainty stated by the source.

Test: protein stability index of a GFP-peptide fusion (yeast GPS) (PSI 1-4); higher = more stable; sorted into four equal gates, so the index is relative within each strain
How it was run: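 Each library plasmid carries Cherry plus GFP with a tiled 17-residue yeast protein peptide fused downstream, and the pooled library was carried in yeast. Mid-log cultures in leucine-free medium were sorted into four equal gates by GFP/Cherry ratio. Reads from Illumina sequencing of PCR-amplified plasmids from each gate were assigned to strains by barcodes. Per peptide, the protein stability index was computed as the summed products of gate read frequency and gate number.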

QRDRHTLAYDRGHRIRR [PRP8]
protein stability index (doa10∆): 3.01 ± 0.1
protein stability index (pdr5∆): 3.21 ± 0.074
protein stability index (san1∆): 2.83 ± 0.095
protein stability index (ubr1∆): 2.87 ± 0.048

APVEVQEDFEVVEEFTP [RPS5]
protein stability index (doa10∆): 3.31 ± 0.076
protein stability index (pdr5∆): 3.21 ± 0.08
protein stability index (san1∆): 3.02 ± 0.049
protein stability index (ubr1∆): 2.94 ± 0.062

KSQEQREHSLQLFRTNK [PRP28]
protein stability index (doa10∆): 3 ± 0.24
protein stability index (pdr5∆): 2.51 ± 0.11
protein stability index (san1∆): 2.88 ± 0.12
protein stability index (ubr1∆): 2.9 ± 0.076

LQYLPLYAVSTFENTNN [SIR4]
protein stability index (doa10∆): 1.82 ± 0.038
protein stability index (pdr5∆): 1.71 ± 0.042
protein stability index (san1∆): 1.41 ± 0.057
protein stability index (ubr1∆): 2.31 ± 0.046

ESKMRQQEAKYRNNEPA [YDL088C/ASM4]
protein stability index (doa10∆): 3.13 ± 0.074
protein stability index (pdr5∆): 3.12 ± 0.063
protein stability index (san1∆): 2.84 ± 0.075
protein stability index (ubr1∆): 2.88 ± 0.059

APSANQGDEALSVDDIR [RTT102]
protein stability index (doa10∆): 3.15 ± 0.093
protein stability index (pdr5∆): 3.33 ± 0.1
protein stability index (san1∆): 2.98 ± 0.088

WQSGLKMYDYEEKEESN [RPN11]
protein stability index (doa10∆): 2.98 ± 0.13
protein stability index (pdr5∆): 3.26 ± 0.13
protein stability index (san1∆): 2.93 ± 0.1
protein stability index (ubr1∆): 3 ± 0.16

PEEEAAIRRENEWAEDR [SKP1]
protein stability index (doa10∆): 3.09 ± 0.1
protein stability index (pdr5∆): 3.15 ± 0.082
protein stability index (san1∆): 3.34 ± 0.05
protein stability index (ubr1∆): 3.28 ± 0.1

KSSILTVLQKNSLLLDS [YML103C/NUP188]
protein stability index (doa10∆): 1.84 ± 0.056
protein stability index (pdr5∆): 1.71 ± 0.08
protein stability index (san1∆): 1.56 ± 0.075
protein stability index (ubr1∆): 2.36 ± 0.085

AYRTDVIQALGGIETIL [PRP8]
protein stability index (doa10∆): 1.44 ± 0.073
protein stability index (pdr5∆): 1.54 ± 0.066
protein stability index (san1∆): 1.46 ± 0.13
protein stability index (ubr1∆): 1.45 ± 0.054

DTKNSKSESPSEVLVDT [ISW2]
protein stability index (doa10∆): 3.11 ± 0.082
protein stability index (pdr5∆): 3.12 ± 0.07
protein stability index (san1∆): 2.97 ± 0.082
protein stability index (ubr1∆): 3.27 ± 0.063

VDGMAKVPIGLILQRLK [RGR1]
protein stability index (doa10∆): 2.51 ± 0.1
protein stability index (pdr5∆): 2.67 ± 0.091
protein stability index (san1∆): 2.22 ± 0.15
protein stability index (ubr1∆): 2.49 ± 0.057

TSLFHKFILSGFIFTSM [RRI2]
protein stability index (doa10∆): 2.09 ± 0.046
protein stability index (pdr5∆): 1.66 ± 0.03
protein stability index (san1∆): 1.94 ± 0.07
protein stability index (ubr1∆): 1.52 ± 0.044

PVGACATSVESVDIGVE [FAS2]
protein stability index (doa10∆): 2.92 ± 0.13
protein stability index (pdr5∆): 2.9 ± 0.11
protein stability index (san1∆): 2.12 ± 0.085
protein stability index (ubr1∆): 2.86 ± 0.089

SKDGLPNKVKTEDIRIR [RRP6]
protein stability index (doa10∆): 2.67 ± 0.063
protein stability index (pdr5∆): 2.91 ± 0.076
protein stability index (san1∆): 2.76 ± 0.067
protein stability index (ubr1∆): 2.73 ± 0.046

VQQRYTQSGGVRPFGVS [PRE6]
protein stability index (doa10∆): 2.8 ± 0.22

IYNSTDSNSEILNFLNQ [YML103C/NUP188]
protein stability index (doa10∆): 3.1 ± 0.2
protein stability index (pdr5∆): 2.72 ± 0.067
protein stability index (san1∆): 2.71 ± 0.055
protein stability index (ubr1∆): 2.9 ± 0.076

IAKSQDKKSCSVDDVLS [DPB4]
protein stability index (doa10∆): 3.28 ± 0.057
protein stability index (pdr5∆): 3.15 ± 0.077
protein stability index (san1∆): 3.22 ± 0.055
protein stability index (ubr1∆): 3.16 ± 0.039

IMAKRPFDKKSNSALFR [FAS1]
protein stability index (doa10∆): 2.84 ± 0.059
protein stability index (pdr5∆): 2.9 ± 0.062
protein stability index (san1∆): 2.87 ± 0.046
protein stability index (ubr1∆): 2.89 ± 0.05

FVCRGMAATQTIEQSPR [ECM29]
protein stability index (doa10∆): 1.7 ± 0.063
protein stability index (pdr5∆): 1.93 ± 0.062
protein stability index (san1∆): 1.58 ± 0.23
protein stability index (ubr1∆): 1.56 ± 0.054

GKMVRAQDVALAKKWFL [PRP8]
protein stability index (doa10∆): 2.34 ± 0.12
protein stability index (pdr5∆): 2.51 ± 0.14
protein stability index (san1∆): 2.57 ± 0.23
protein stability index (ubr1∆): 3.05 ± 0.24

MMVSYPKIDEDDTWYNL [AAR2]
protein stability index (doa10∆): 3.29 ± 0.063
protein stability index (pdr5∆): 3.34 ± 0.06
protein stability index (san1∆): 3.25 ± 0.048
protein stability index (ubr1∆): 3.35 ± 0.045

NVKTSVSQLYRISEKSV [RPO31]
protein stability index (doa10∆): 3.04 ± 0.11
protein stability index (pdr5∆): 3.22 ± 0.1
protein stability index (san1∆): 3.12 ± 0.076
protein stability index (ubr1∆): 3.16 ± 0.083

SIVHINSQERVQDLGSA [SIR2]
protein stability index (doa10∆): 2.65 ± 0.069
protein stability index (pdr5∆): 3.14 ± 0.064
protein stability index (san1∆): 2.99 ± 0.067
protein stability index (ubr1∆): 2.59 ± 0.048

PELAMALRLSMEEEQQR [RPN10]
protein stability index (doa10∆): 3.15 ± 0.14
protein stability index (pdr5∆): 3.09 ± 0.061
protein stability index (ubr1∆): 3.14 ± 0.08

TKPAIRRLARRGGVKRI [HHF1]
protein stability index (doa10∆): 3.04 ± 0.13
protein stability index (pdr5∆): 3.12 ± 0.16
protein stability index (san1∆): 3 ± 0.16
protein stability index (ubr1∆): 3.45 ± 0.1

SHDKKTKCSTVVKASEL [SRP14]
protein stability index (doa10∆): 3.02 ± 0.18
protein stability index (pdr5∆): 3.46 ± 0.22
protein stability index (san1∆): 3.05 ± 0.17
protein stability index (ubr1∆): 3.33 ± 0.11

STLGDCLGIKDEEMLTS [GAL11]
protein stability index (doa10∆): 3.17 ± 0.18
protein stability index (pdr5∆): 3.11 ± 0.13
protein stability index (san1∆): 2.81 ± 0.062
protein stability index (ubr1∆): 3.04 ± 0.088

GDQFLRYVNLLGVTYSS [PRE4]
protein stability index (doa10∆): 2.27 ± 0.1
protein stability index (pdr5∆): 2.33 ± 0.062
protein stability index (san1∆): 2.1 ± 0.075
protein stability index (ubr1∆): 2.02 ± 0.042

KTLVALEKQEDYIDNLV [RPC37]
protein stability index (doa10∆): 3.23 ± 0.11
protein stability index (pdr5∆): 2.97 ± 0.14
protein stability index (san1∆): 2.97 ± 0.16
protein stability index (ubr1∆): 3.07 ± 0.11

KLTSEETVFNYRLMIKR [GRR1]
protein stability index (doa10∆): 3.02 ± 0.12
protein stability index (pdr5∆): 2.96 ± 0.12
protein stability index (san1∆): 2.56 ± 0.12
protein stability index (ubr1∆): 2.82 ± 0.095

PKNFGIGQAVQPKRNLS [RPL8A]
protein stability index (doa10∆): 2.74 ± 0.064
protein stability index (pdr5∆): 2.74 ± 0.056
protein stability index (san1∆): 2.78 ± 0.043
protein stability index (ubr1∆): 2.69 ± 0.05

KVTKIWSKESNYDCKVI [PRP28]
protein stability index (doa10∆): 2.93 ± 0.1
protein stability index (pdr5∆): 2.47 ± 0.059
protein stability index (san1∆): 2.61 ± 0.051
protein stability index (ubr1∆): 2.97 ± 0.058

VMGTPLTNMMSPMGNAY [PGD1]
protein stability index (doa10∆): 2.03 ± 0.14
protein stability index (pdr5∆): 2.24 ± 0.21
protein stability index (san1∆): 1.62 ± 0.18

AGNLITTPEINNFIVER [SRP68]
protein stability index (doa10∆): 2.79 ± 0.067
protein stability index (pdr5∆): 3.07 ± 0.061
protein stability index (san1∆): 3.18 ± 0.061
protein stability index (ubr1∆): 2.82 ± 0.049

SNAVTQTNIWEENWDDV [SEM1]
protein stability index (doa10∆): 3.36 ± 0.085
protein stability index (pdr5∆): 3.46 ± 0.12
protein stability index (san1∆): 3.32 ± 0.084
protein stability index (ubr1∆): 3.43 ± 0.14

LANYLTSALSELSGLIS [QCR2]
protein stability index (doa10∆): 1.48 ± 0.047
protein stability index (pdr5∆): 1.88 ± 0.044
protein stability index (san1∆): 1.84 ± 0.064
protein stability index (ubr1∆): 1.59 ± 0.033

FDHNDKKLSINSAARNI [PRE7]
protein stability index (doa10∆): 2.72 ± 0.059
protein stability index (pdr5∆): 2.47 ± 0.059
protein stability index (san1∆): 2.4 ± 0.055
protein stability index (ubr1∆): 2.83 ± 0.065

EIQEELERFNKRADISK [SMC1]
protein stability index (ubr1∆): 3.23 ± 0.18

MMQDPQMQQMAKQFGMG [SRP54]
protein stability index (doa10∆): 3.15 ± 0.039
protein stability index (pdr5∆): 2.93 ± 0.043
protein stability index (san1∆): 3.03 ± 0.031
protein stability index (ubr1∆): 2.75 ± 0.027

RKWAARAASAKIESSVE [RPS8A]
protein stability index (doa10∆): 3.21 ± 0.087
protein stability index (pdr5∆): 3.2 ± 0.062
protein stability index (san1∆): 2.74 ± 0.056
protein stability index (ubr1∆): 3.4 ± 0.054

FKMNEIVPLHSPFLMGH [SEC65]
protein stability index (doa10∆): 2.71 ± 0.067
protein stability index (pdr5∆): 2.59 ± 0.072
protein stability index (san1∆): 2.59 ± 0.082
protein stability index (ubr1∆): 2.62 ± 0.057

DTAPKPNIVEIDLDNDE [DLS1]
protein stability index (doa10∆): 3.27 ± 0.082
protein stability index (pdr5∆): 3.4 ± 0.058
protein stability index (san1∆): 3.03 ± 0.079
protein stability index (ubr1∆): 3.27 ± 0.091

SEFANQNQGGAQAPFDI [ROX3]
protein stability index (san1∆): 3.28 ± 0.22
protein stability index (ubr1∆): 3.48 ± 0.094

KSSNDTIEHAADITDGN [YCG1]
protein stability index (doa10∆): 2.98 ± 0.25
protein stability index (pdr5∆): 3.16 ± 0.2
protein stability index (san1∆): 3.23 ± 0.17
protein stability index (ubr1∆): 3.3 ± 0.15

NKEMETQRIMTNVIAFA [YLR018C/POM34]
protein stability index (doa10∆): 2.33 ± 0.1
protein stability index (pdr5∆): 2.46 ± 0.07
protein stability index (san1∆): 1.99 ± 0.15
protein stability index (ubr1∆): 2.46 ± 0.058

LTVFYAIKKFKTEKDGV [SSN3]
protein stability index (doa10∆): 2.17 ± 0.12
protein stability index (pdr5∆): 1.74 ± 0.057
protein stability index (san1∆): 2.42 ± 0.061
protein stability index (ubr1∆): 1.97 ± 0.085

DLKSKADKLADMANEII [RRP6]
protein stability index (doa10∆): 3.38 ± 0.15
protein stability index (pdr5∆): 3.17 ± 0.12
protein stability index (san1∆): 3.19 ± 0.082
protein stability index (ubr1∆): 3.16 ± 0.085

YHRLSNKDMIKNLVKVL [CSN12]
protein stability index (doa10∆): 3.21 ± 0.26
protein stability index (pdr5∆): 2.97 ± 0.19
protein stability index (san1∆): 1.41 ± 0.25

DVVTREYTINLHKRLHG [RPL31A]
protein stability index (doa10∆): 2.62 ± 0.12
protein stability index (pdr5∆): 2.55 ± 0.09
protein stability index (san1∆): 2.66 ± 0.069
protein stability index (ubr1∆): 1.71 ± 0.067

LTNMMSPMGNAYSMGAQ [PGD1]
protein stability index (doa10∆): 2.34 ± 0.062
protein stability index (pdr5∆): 2.64 ± 0.077
protein stability index (san1∆): 2.49 ± 0.084
protein stability index (ubr1∆): 2.68 ± 0.044

LNSLTNLLSKRNQEKKM [SNM1]
protein stability index (doa10∆): 2.89 ± 0.078
protein stability index (pdr5∆): 2.86 ± 0.074
protein stability index (san1∆): 2.69 ± 0.083
protein stability index (ubr1∆): 2.7 ± 0.063

NISTNTNIHEPQYINYS [SSN2]
protein stability index (doa10∆): 3.17 ± 0.067
protein stability index (pdr5∆): 2.98 ± 0.078
protein stability index (san1∆): 2.74 ± 0.069
protein stability index (ubr1∆): 2.97 ± 0.078

FYVQDVYKDNLSFIQVR [RPO31]
protein stability index (doa10∆): 1.98 ± 0.049
protein stability index (pdr5∆): 1.69 ± 0.05
protein stability index (san1∆): 1.92 ± 0.068
protein stability index (ubr1∆): 1.88 ± 0.041

ANALGGLGVNRRILAAA [SSN3]
protein stability index (doa10∆): 1.77 ± 0.068
protein stability index (pdr5∆): 1.69 ± 0.069
protein stability index (san1∆): 1.58 ± 0.16
protein stability index (ubr1∆): 1.92 ± 0.046
